Key:
DAN-his (Sinobiological) [1] = target: T1, DAN-his (Sinobiological) (human, UniProt P41271 17-181, limits assumed); assay: ELISA on coated DAN-his; unit from the axis Ab(nM); panel called FIG. 19C in the text
T1 construct: also called DAN (Sinobiological); human DAN-his
T1 sequence (looked up): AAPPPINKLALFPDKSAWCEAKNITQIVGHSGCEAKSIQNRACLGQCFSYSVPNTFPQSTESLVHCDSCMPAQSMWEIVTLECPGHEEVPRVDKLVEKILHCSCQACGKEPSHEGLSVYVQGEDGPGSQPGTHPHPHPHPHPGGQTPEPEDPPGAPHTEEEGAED
Method: (§1) Clear polystyrene plates (BEAVER) were coated with 100 μl/well of a 0.5 μg/ml human gremlin (ACRO) and DAN (Sinobiological) in high pH coating buffer overnight at 4° C. Then the plates were washed once on an automatic plate washer using PBS+0.1% Tween 20 (Sigma). 100 μl of block solution consisting of PBS+1% BSA+1% normal goat serum+0.5% Tween 20 (Sigma) was added to each well and incubated at room temperature for 2 hours. Then 100 ul of antibodies (hybridoma or chimeric antibody 36F5, chimeric antibody 67G11, chimeric antibody 42B9) in antibody dilution buffer containing PBS+1% BSA+1% normal goat serum+0.01% Tween 20 starting from 2 μg/ml (13.33 nM) and then 4 fold serial dilution were added to each well of the plate and incubated for 1 hours at room temperature. Afterward the plates were washed three times with 200 ul of PBS+0.1% Tween20 followed by adding 100 μl/well 1:10000 Goat anti mouse IgG-HRP or mouse anti-human IgG-HRP (abcam), and incubate for 1 hour at room temperature. They were then washed 3× with PBS+0.1% Tween20. Finally, 100 μl/well of TMB (InnoReagents) was added to each well and after 2 minutes add 50 ul of stop solution to each well. The plates were read on a Multiscan FC microplate reader (Thermo Scientific) at 450 nm.

HGREM1-His (ACRO) [2] = target: T2, HGREM1-His (ACRO) (human, UniProt O60565 25-184); assay: ELISA on coated Gremlin-his; unit from the axis label Ab(ug/ml), the table prints none
T2 construct: Lys25-Asp184 of NP_037504 with C-terminal polyhistidine tag (ACRO GR1-H52H3); they are put here; also called hGREM1 (ACRO); human gremlin (ACRO)
T2 sequence: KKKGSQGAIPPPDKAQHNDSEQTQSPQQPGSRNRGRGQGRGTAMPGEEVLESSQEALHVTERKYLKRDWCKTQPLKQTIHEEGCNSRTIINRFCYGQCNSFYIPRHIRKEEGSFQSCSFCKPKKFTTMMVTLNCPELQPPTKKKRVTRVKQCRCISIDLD
Method: as §1

HGREM1-His (ACRO) [3] = target: T2, HGREM1-His (ACRO); assay: competition ELISA, Gremlin-his 0.25 ug/ml binding to coated FGFR1-Fc
Method: Next, 0.25 μg/ml of gremlin was selected to test the blocking activity. The ability of antibodies to block Gremlin binding to human FGFR1-Fc was examined via ELISA. Plates were coated with recombinant FGFR1-Fc (2 μg/ml) overnight and then serial dilutions of antibodies were incubated with 0.25 μg/ml of human Gremlin-his modified for 1 h at RT before this complex was added to coated plates and allowed to incubate for an additional hour at RT. The plates were then washed and added with anti-his HRP (GenScript). Plates were then developed with a TMB solution and stopped by adding stop solution. The plates were read on a plate reader at 450 nm. […] Humanized anti-GREM1 antibodies provided herein (e.g., Hu14E3, Hu22F1) are expected to show the similar technical effect as their chimeric counterparts in blocking the binding of hGREM1 to FGFR1.

DAN-his (Sinobiological) [4] = target: T1, DAN-his (Sinobiological); assay: blocking ELISA: coated BMP2, antibody pre-incubated with human DAN-his, anti-his HRP; blocked ligand BMP2; unit from the axis Concentration(nM)
Method: (§2) Plates were coated with recombinant human BMP2/4 (0.5 μg/ml) overnight. Then the plates were washed once on an automatic plate washer using PBS+0.1% Tween 20 (Sigma). 100 μl of block solution consisting of PBS+1% BSA+1% normal goat serum+0.5% Tween 20 (Sigma) was added to each well and incubated at room temperature for 2 hours. Then the plates were washed three 3 times. Then 55 ul serial dilutions of chimeric antibodies 36F5 and 55 ul […] of human DAN-his in dilution buffer containing PBS+1% BSA+1% normal goat serum+0.01% Tween 20 separately were mixed and incubated for 1 h at RT before 100 ul of this complex was added to coated plates and allowed to incubate for an additional hour at room temperature. The plates were then washed 3 times and added with 100 ul of anti-his HRP (GenScript) in dilution buffer. Plates were then developed with a TMB solution and stopped by adding stop solution. After wash three times with wash buffer, the plates were read on a plate reader at 450 nm. Also, consistent with previous result, besides blocking gremlin activity, 36F5 could block BMP2/4 binding to DAN protein. (FIGS. 20A and 20B).

HGREM1-His (ACRO) [5] = target: T2, HGREM1-His (ACRO); assay: ELISA on coated human Gremlin-his; unit from the axis Ab(nM); panel called FIG. 19C in the text
Method: as §1

DAN-his (Sinobiological) [6] = target: T1, DAN-his (Sinobiological); assay: ELISA on coated DAN-his; unit from the axis label Ab(ug/ml), the table prints none
Method: as §1

DAN-his (Sinobiological) [7] = target: T1, DAN-his (Sinobiological); assay: blocking ELISA: coated BMP4, antibody pre-incubated with human DAN-his, anti-his HRP; blocked ligand BMP4; unit from the axis Concentration(nM) [Continued]
Method: as §2

EC50 (DAN-his (Sinobiological) [1]): 0.0211 nM
EC50 (HGREM1-His (ACRO) [2]): 0.0238 µg/mL
IC50 (HGREM1-His (ACRO) [3]): 1.37 nM
IC50 (DAN-his (Sinobiological) [4]): 3.29 nM
EC50 (HGREM1-His (ACRO) [5]): 0.0183 nM
EC50 (DAN-his (Sinobiological) [6]): 0.02 µg/mL
IC50 (DAN-his (Sinobiological) [7]): 3.93 nM
B1: chimeric antibody 36F5 (36F5-chi) (antibody, human IgG1, V domains shown)
VH: QVQLQQSGAELARPGASVKLSCKASGYSFTSSGIGWVKQRSGQGLEWIGEIYPRSGNTYNNEKFKGKATLTADKSSSTVYMELRSLTSEDSAVYFCVREAYSHHYYAMDYWGQGTSVTVFS
VL: DVLMTQTPLSLPVSLGGQASISCRSSQSLLHSNGNTYLEWYLQKPGQSPKLLIYKVSNRFSGVPDRLSGSGSGTDFTLKISRVEAEDLGVYYCFQGSHVPFTFGSGTKLEIN
notes: also called chimeric 36F5

Reference: patent US20240294622A1 (SUZHOU TRANSCENTA THERAPEUTICS, published 2024)
